In US7879792:
pKi: −log10 of the molar value. Each block holds one substance with its values, some of them ahead of it.

Tests used:
human α-thrombin (human) [1] = target: human α-thrombin (human) (UniProt P00734); test: cell-based or functional assay
human α-thrombin (human) [2] = target: human α-thrombin (human) (UniProt P00734); test: inhibition of α-thrombin hydrolysis of Sar-Pro-Arg-paranitroanilide; Ki from Ki,app by the procedure of Bieth
human γ-thrombin (human) = human γ-thrombin (human) (UniProt P00734); test: inhibition of γ-thrombin hydrolysis of Sar-Pro-Arg-paranitroanilide; Ki from Ki,app by the procedure of Bieth
[3] = target: recombinant extracellular domain of human PAR4 (rPAR4EC), Gly18-Arg78 (human) (UniProt Q96RI0); test: displacement of 15 µM RPPGFK-biotin from plate-bound rPAR4EC; peptide at 1000 µM
[4] = target: recombinant extracellular domain of human PAR4 (rPAR4EC), Gly18-Arg78 (human) (UniProt Q96RI0); test: displacement of 15 µM RPPGFK-biotin from plate-bound rPAR4EC; peptide at 300 µM
[5] = target: recombinant extracellular domain of human PAR4 (rPAR4EC), Gly18-Arg78 (human) (UniProt Q96RI0); test: displacement of 15 µM RPPGFK-biotin from plate-bound rPAR4EC; peptide at 30 µM

Substance: rOicPaF(p-NO2) (D-Arg-Oic-Pro-D-Ala-Phe(p-NO2)) (peptide)
peptide concentration giving significant prolongation (p<0.05) of the APTT of normal human plasma (human α-thrombin (human) [1]): 50 µM
peptide concentration giving significant prolongation (p<0.05) of the PT of normal human plasma (human α-thrombin (human) [1]): 6.25 µM
peptide concentration giving significant prolongation (p<0.05) of the TCT of normal human plasma (human α-thrombin (human) [1]): 1.56 µM
pKi (human α-thrombin (human) [2]): 4.97
pKi (human γ-thrombin (human)): 4.06

Substance: rOicPaF(p-Me) (D-Arg-Oic-Pro-D-Ala-Phe(p-Me)) (peptide)
% of RPPGFK-biotin displaced [3]: 63%
% of RPPGFK-biotin displaced [4]: 49%
pKi (human γ-thrombin (human)): 4.27
% of RPPGFK-biotin displaced [5]: 19%

The next lines start with the values.

pKi (human γ-thrombin (human)): 4.23
Substance: rOicPaF(p-I) (D-Arg-Oic-Pro-D-Ala-Phe(p-I)) (peptide)

pKi (human γ-thrombin (human)): 4.37
Substance: rOicPsF(p-Me) (D-Arg-Oic-Pro-D-Ser-Phe(p-Me)) (peptide)

pKi (human γ-thrombin (human)): 4.31
Substance: rOicPaF(p-Br) (D-Arg-Oic-Pro-D-Ala-Phe(p-Br)) (peptide)
